Experimental data as given in publication PMC12416549 (2024).
Substitutions are numbered along the chain they refer to. Numbers in names are those of the source.

Target: T1, TNFR1 (Homo sapiens, UniProt P19438)
T1 chain: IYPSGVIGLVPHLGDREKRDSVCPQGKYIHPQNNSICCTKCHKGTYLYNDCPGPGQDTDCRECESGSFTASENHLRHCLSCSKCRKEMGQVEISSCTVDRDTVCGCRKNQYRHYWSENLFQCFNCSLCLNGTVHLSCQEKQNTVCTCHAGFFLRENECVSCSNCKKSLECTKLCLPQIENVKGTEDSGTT
Test: yeast display SC50

B1: W68L (designed binder)
chain: MTLQELLREEALRRAEAEAFRYALELLAEKFPEQKEYLLDLAEEIESQIRSLSGVDVEDVRKFLDKELAWVKELLAEHPAELAEVEAARAARLAELRAEVEAKVAA
For B1, the “apparent Kd (screen)” value was 0.539 nM.

B2: K66S (designed binder)
chain: B1 chain with K66S, L68W
With B2 the “apparent Kd (screen)” value was 0.49 nM.

B3: L75F (designed binder)
chain: B1 chain with L68W, L75F
B3 was tested, and the “apparent Kd (screen)” value was 1.27 nM.

B4: P79K (designed binder)
chain: B1 chain with L68W, P79K
With B4 the “apparent Kd (screen)” value was 0.593 nM.

B5: E77G (designed binder)
chain: B1 chain with L68W, E77G
For B5, the “apparent Kd (screen)” value was 0.593 nM.

B6: R8E (designed binder)
chain: B1 chain with R8E, L68W
In the case of B6, the “apparent Kd (screen)” value is reported as 0.49 nM.

B7: L12P (designed binder)
chain: B1 chain with L12P, L68W
In the case of B7, the “apparent Kd (screen)” value is reported as 1.05 nM.

B8: R50H (designed binder)
chain: B1 chain with R50H, L68W
For B8, the “apparent Kd (screen)” value was 0.539 nM.

B9: E33C (designed binder)
chain: B1 chain with E33C, L68W
With B9 the “apparent Kd (screen)” value was 0.593 nM.

B10: A76I (designed binder)
chain: B1 chain with L68W, A76I
For B10, the “apparent Kd (screen)” value was 0.653 nM.

B11: A94K (designed binder)
chain: B1 chain with L68W, A94K
In the case of B11, the “apparent Kd (screen)” value is reported as 0.653 nM.

B12: A102H (designed binder)
chain: B1 chain with L68W, A102H
For B12, the “apparent Kd (screen)” value was 1.16 nM.

B13: E43S (designed binder)
chain: B1 chain with E43S, L68W
With B13 the “apparent Kd (screen)” value was 0.49 nM.

B14: I45C (designed binder)
chain: B1 chain with I45C, L68W
In the case of B14, the “apparent Kd (screen)” value is reported as 2.48 nM.

B15: A98N (designed binder)
chain: B1 chain with L68W, A98N
For B15, the “apparent Kd (screen)” value was 0.869 nM.

B16: R89C (designed binder)
chain: B1 chain with L68W, R89C
B16 was tested, and the “apparent Kd (screen)” value was 0.653 nM.

B17: E25T (designed binder)
chain: B1 chain with E25T, L68W
In the case of B17, the “apparent Kd (screen)” value is reported as 0.405 nM.

B18: D40E (designed binder)
chain: B1 chain with D40E, L68W
With B18 the “apparent Kd (screen)” value was 0.593 nM.

B19: T2M (designed binder)
chain: B1 chain with T2M, L68W
In the case of B19, the “apparent Kd (screen)” value is reported as 0.49 nM.

B20: P32W (designed binder)
chain: B1 chain with P32W, L68W
In the case of B20, the “apparent Kd (screen)” value is reported as 0.49 nM.

B21: I45N (designed binder)
chain: B1 chain with I45N, L68W
B21 was tested, and the “apparent Kd (screen)” value was 4.83 nM.

B22: A105P (designed binder)
chain: B1 chain with L68W, A105P
For B22, the “apparent Kd (screen)” value was 0.79 nM.

B23: D40W (designed binder)
chain: B1 chain with D40W, L68W
With B23 the “apparent Kd (screen)” value was 0.49 nM.

B24: R13M (designed binder)
chain: B1 chain with R13M, L68W
For B24, the “apparent Kd (screen)” value was 0.304 nM.
